Experimental data: patent US20170037149A1 (Amgen, published 2017)

B1: FL-63 scFv (scFv)
scFv: QVQLVESGGGVVQPGRSLRLSCAASGFTFSSYGMHWVRQAPGKGLEWVAVISYDGSNEFYADSVKGRFTISRDNSKNTLYLQMNSLRAEDTAVYYCARGGEITMVRGVIGYYYYGMDVWGQGTTVTVSSGGGGSGGGGSGGGGSDIQMTQSPSSLSASVGDRVTITCRTSQSISSYLNWYQQKPGKAPKLLIYAASSLQSGVPSRFSGSGSGTEFTLTISSLQPEDFATYYCLQHNSYPLTFGGGTKVDIK
notes: periplasmic prep
B2: FL-53 scFv (scFv)
scFv: QVQLVESGGGVVQPGRSLRLSCAASGFTFSSYGMHWVRQAPGKCLEWVAVISYDGSNEFYADSVKGRFTISRDNSKNTLYLQMNSLRAEDTAVYYCARGGEITMVRGVIGYYYYGMDVWGQGTTVTVSSGGGGSGGGGSGGGGSDIQMTQSPSSLSASVGDRVTITCRTSQSISSYLNWYQQKPGKAPKLLIYAASSLQSGVPSRFSGSGSGTEFTLTISSLQPEDFATYYCLQHNSYPLTFGCGTKVDIK
notes: periplasmic prep
B3: FL-61 scFv (scFv)
scFv: QVQLVESGGGVVQPGRSLRLSCAASGFTFSSYGMHWVRQAPGKGLEWVAVISYDGSNEFYADSVKGRFTISRDNSKNTLYLQMNSLRAEDTAVYYCARGGEITMVRGVIGYYYYGMDVWGQGTTVTVSSGGGGSGGGGSGGGGSDIQMTQSPSSLSASVGDRVTITCRASQSISSYLNWYQQKPGKAPKLLIYAASSLQSGVPSRFSGSGSGTEFTLTISSLQPEDFATYYCLQHNSYPLTFGGGTKVEIK
notes: periplasmic prep
B4: FL-64 scFv (scFv)
scFv: QVQLVESGGGVVQPGRSLRLSCAASGFTFSSYGMHWVRQAPGKGLEWVAVISYDGSNEFYADSVKGRFTISRDNSKNTLYLQMNSLRAEDTAVYYCARGGEITMVRGVIGYYYYGMDVWGQGTTVTVSSGGGGSGGGGSGGGGSDIQMTQSPSSLSASVGNRVTITCRASQSISSYLNWYQQKPGKAPKLLIYAASSLQSGVPSRFSGSGSGTEFTLTISSLQPEDFATYYCLQHNSYPLTFGGGTKVDIK
notes: periplasmic prep
B5: FL-54 scFv (scFv)
scFv: QVQLVESGGGVVQPGRSLRLSCAASGFTFSSYGMHWVRQAPGKCLEWVAVISYDGSNEFYADSVKGRFTISRDNSKNTLYLQMNSLRAEDTAVYYCARGGEITMVRGVIGYYYYGMDVWGQGTTVTVSSGGGGSGGGGSGGGGSEIVMTQSPATLSVSPGERATLSCRASQGVRNNLVWYQQKPGQAPRLLIYGASTRATGIPARFSGSGSGTEFTLTISSLQSEDFATYYCLQHNSYPLTFGCGTKVEIK
notes: periplasmic prep
B6: FL-62 scFv (scFv)
scFv: QVQLVESGGGVVQPGRSLRLSCAASGFTFSSYGMHWVRQAPGKGLEWVAVISYDGSNEFYADSVKGRFTISRDNSKNTLYLQMNSLRAEDTAVYYCARGGEITMVRGVIGYYYYGMDVWGQGTTVTVSSGGGGSGGGGSGGGGSEIVMTQSPATLSVSPGERATLSCRASQGVRNNLVWYQQKPGQAPRLLIYGASTRATGIPARFSGSGSGTEFTLTISSLQSEDFATYYCLQHNSYPLTFGGGTKVEIK
notes: periplasmic prep; also called F-62
B7: FL-55 scFv (scFv)
scFv: QVQLVESGGGVVQPGRSLRLSCAASGFTFSSYGMHWVRQAPGKCLEWVAVISYDGSNKYYADSVKGRFTISRDNSKNTLYLQMNSLRAEDTAVYYCARSYGMDVWGQGTTVTVSSGGGGSGGGGSGGGGSDIQMTQSPSSVSASVGDRVTITCRASQGISSWLAWYQQKPGKAPKLLIYAASSLQSGVPSRFSGSGSGTDFTLTISSLQPEDFATYYCQQANSFPWTFGCGTKLEIK
notes: periplasmic prep
B8: FL-65 scFv (scFv)
scFv: QVQLVESGGGVVQPGRSLRLSCAASGFTFSSYGMHWVRQAPGKGLEWVAVISYDGSNKYYADSVKGRFTISRDNSKNTLYLQMNSLRAEDTAVYYCARSYGMDVWGQGTTVTVSSGGGGSGGGGSGGGGSDIQMTQSPSSVSASVGDRVTITCRASQGISSWLAWYQQKPGKAPKLLIYAASSLQSGVPSRFSGSGSGTDFTLTISSLQPEDFATYYCQQANSFPWTFGQGTKLEIK
notes: periplasmic prep
B9: FL-56 scFv (scFv)
scFv: QVTLKESGPVLVKPTETLTLTCTVSGFSLRNVRMGVSWIRQPPGKALEWLAHIFSNDEKLYTTSLKSRLTISKDTSKSQVVLTMTNMDPEDTATYYCARIVGYGTGWYGYFDYWGQGTQVTVSSGGGGSGGGGSGGGGSDIQMTQSPSSLSASIGDRVTITCRASQDIRDDLGWYQREPGKAPKRLIYATSIRQSGVPSRFSGSGSGTEFTLTISGLQPEDFATYFCLQHHSFPLTFGGGTKVDIK
notes: periplasmic prep
B10: FL-57 scFv (scFv)
scFv: QVTLKESGPTLVKPTETLTLTCTFSGFSLRYARMGVSWIRQPPGKALEWLAHISSNDEKSFSTALESRLTISTDTSKSQMVLTMTNVDPVDTATYYCARMPGDSNTWRGFFDYWGQGTLVTVSSGGGGSGGGGSGGGGSEIVMTQSPGTLSLSPGERATLSCRTSQTVTNSYIAWYQQRPGQAPRLLIYGTSTRATGIPDRFSGSGSGTDFTLTISRLEPEDFAVYYCQKYGSSPLTFGGGTKLEIK
notes: periplasmic prep
B11: FL-60 scFv (scFv)
scFv: QVTLKESGPALVKPTQTLTLTCTFSGFSLSNARMGVSWIRQPPGKALEWLAHIFSNDEKSYSTSLKSRLTISKDTSKRQVVLTMTNMDPVDTATYYCARMVGYGSGWYAYFDYWGQGTLVTVSSGGGGSGGGGSGGGGSDIVMTQTPLSLSVTPGQPASISCRSSQSLLHSNGYNYLYWYLQKPGQPPQLLIYEVSNRFSGVPDRFSGSGSGTDFTLKISRVEAEDVGVYYCMQALQTPLTFGGGTKVEIK
notes: periplasmic prep
B12: FL-1 scFv (scFv)
scFv: QVTLKESGPVLVKPTETLTLTCTVSGFSLINARMGVSWIRQPPGKALEWLAHIFSNAEKSYRTSLKSRLTISKDTSKSQVVLTMTNMDPVDTATYYCARIPGYGGNGDYHYYGMDVWGQGTTVTVSSGGGGSGGGGSGGGGSDIQMTQSPSSLSASLGDRVTITCRASQGIRNDLGWYQQKPGKAPKRLIYASSTLQSGVPSRFSGSGSGTEFTLTISSLQPEDFATYYCLQHNNFPWTFGQGTKVEIK
notes: periplasmic prep
B13: FL-2 scFv (scFv)
scFv: QVTLKESGPVLVKPTETLTLTCTVSGFSLRNARMGVSWIRQPPGKALEWLAHIFSNDEKTYSTSLKSRLTISRDTSKGQVVLTMTKMDPVDTATYYCARIPYYGSGSHNYGMDVWGQGTTVTVSSGGGGSGGGGSGGGGSDIQMTQSPSSLSASVGDRVTITCRASQDIRNDFGWYQQKPGKAPQRLLYAASTLQSGVPSRFSGSGSGTEFTLTISSLQPEDFATYYCLQYNTYPWTFGQGTKVEIK
notes: periplasmic prep
B14: FL-3 scFv (scFv)
scFv: QVTLKESGPALVKPTETLTLTCTVSGFSLSNARMAVSWIRQPPGKALEWLAHIFSNGEKSYSTSLKSRLTISKDTSKTQVVLTMTNTDPVDTATYFCARIVGYSDWLLPFDHWGQGIMVTVSSGGGGSGGGGSGGGGSDIQMTQSPSSLSASVGDRVTITCRASQNINRFLNWYQQKPGKAPKLLIYAASSLQSGVPSRFSGSGSGTDFTLTISSLQPEDFATYYCLQHNSYPWTFGQGTKVDIK
notes: periplasmic prep

biological target: T1, human FLT3 (human, UniProt P36888 27-993); experiment: FACS, scFv on CHO-human FLT3 pre-incubated with FLT3 ligand (competitor)
T1 construct: On transfected CHO cells, or on the FLT3 positive human AML cell lines EOL-1 / MV4-11 where the row says so; also called hu FLT3; full length human FLT3
Procedure: The detection was performed using mouse anti-FLAG+PE-conjugated goat anti-mouse and the Fluorescence median detected by FACS (median (+ligand)/median (w/o ligand)*100%)
Afterwards cells were not washed but directly stained with FLT3 binder (scFv's). […] As negative control, cells were incubated with an unspecific scFv instead of FLT3 scFv.
For the evaluation of the data, the fluorescence median was detected by FACS.

Row | Binder | median [+ligand]/median [w/o ligand]*100
1 | B1 | ≥ 75%
2 | B2 | ≥ 75%
3 | B3 | ≥ 75%
4 | B4 | ≥ 75%
5 | B5 | ≥ 75%
6 | B6 | ≥ 75%
7 | B7 | ≥ 75%
8 | B8 | ≥ 75%
9 | B9 | ≥ 75%
10 | B10 | ≥ 75%
11 | B11 | ≥ 75%
12 | B12 | ≥ 75%
13 | B13 | ≥ 75%
14 | B14 | ≥ 75%
